{"source": "paper PMC2788227", "about": "(PLoS ONE, 2009)", "proteins": {"B1": {"name": "Francisella tularensis subsp. holarctica LVS 1-deoxy-D-xylulose 5-phosphate reductoisomerase (MEP sy (enzyme)", "chain": "MFKKTKITILGATGSIGDSTLAVIRETNDFEVFALTAFSNVEKLAELCQEFKPKFAVVPDLSKKQKLQSLVTDVEVLVGESGLEKVSSLAEIDIVMSAIVGIAGLKPTFAAAKAGKKILLANKESLVTAGHLLIDEVVKNNAQLIPVDSEHNAIFQCIDNHDKKCLPEIDKIILTASGGPFRDKQLHELTDVTPEQACNHPNWQMGRKISVDSSTMVNKALEVIEAYWLFSVSADKIGVLIHPQSVTHSIVRYVDGSYIAQLGVPDMKTPIANAMYYPKRGSVNVESLDFTKYQLTFREACFERFEALKIVFNNLQNKNYAANIVFNAANEELVAAFLNKKIKYLEIIEVNKKVTKELNFENPKNIEEVFEIDRKTREYVDSVLG"}}, "target": "the molecule itself", "assay": "SEC"}
{"protein": "B1", "values": [{"measurement": "stoichiometry N", "result": 2}]}
